Measured values published in PMC6528580, “Relative catalytic efficiencies and transcript levels of three D‐ and two L‐lactate dehydrogenases for optically pure D‐lactate production in Sporolactobacillus inulinus” (MicrobiologyOpen, 2018).

Substrate: CC(=O)C(=O)O
Assay: purified protein
Format: biochemical, Sporolactobacillus inulinus
Settings: 0.4 mM NADH, pyruvate 0.05-40 mM

B1: L-LDH2 (Sporolactobacillus inulinus CASD) (protein)
chain: MRKYAIIGLGHVGAAVAFQLVSRGIADELILIDTNEGLARAEQLDLQDMQGRIDTRTIIKINDYSELADTDILFITAGNILAYKEKQAQGNRWAEFEYTKDIVQDIAPKVKASGFHGVAIDTMNPCDAITQYFQENTGLSRQQVFATGTFLDTARMQKVVSDQFDCDPKNVSGYVYGEHGESQFTAWSTVRVNGLDITELAKERNLNLDDLEEAARRGGWEVYKGKGYTSWAISTCAVKLSQAVLSDAHAACICSCYSEKYGTYVGQPAIIGKNGIEEVLTLPLTTEEEAKFKHSADTIKEKFQTFEKQTN
notes: N-terminal His-tag (pET-28a) removed by enterokinase; E. coli BL21(DE3)
Km (pH 7.0, 40 °C): 6.8 ± 0.19 mM
Vmax (pH 7.0, 40 °C): 1.9 µmol/min/mg
kcat (pH 7.0, 40 °C): 2.3 ± 0.1 s⁻¹
kcat/Km (pH 7.0, 40 °C): 300 ± 100 M⁻¹ s⁻¹

B2: L-LDH1 (Sporolactobacillus inulinus CASD) (protein)
chain: MSETVRRVGVVGIGNVGKAAASAVLHENIADELYISDIDSERAKGEAWDFADSIELTPSRTRVLEVPLEGLAVCDVILVAVTERSQIPTQSRLELLKGTAAITYDIVPKLRKAGFKGTYVIATNPCDIITYLFYKLSGLPKNHVIGTGTALDSMRLRRQLSQVIGDVDPRSINAFMIGEHGDSQIAAWSQATVGGQPLDQFEEDNVDEFGPIDRDQVEDAARHFGWEIHTRKGNTQFGIGNALAFFAKSILNDARVVTAASVIQNGEYGQNDLAIGVPIILGRNGVERIIKFRLSEKEQEGFNGSAELIKGYIKQTLEEHEETTAN
notes: as for B1
Km (pH 7.0, 45 °C): 4.1 ± 0.12 mM
Vmax (pH 7.0, 45 °C): 5.2 µmol/min/mg
kcat (pH 7.0, 45 °C): 5.9 ± 0.1 s⁻¹
kcat/Km (pH 7.0, 45 °C): 1400 ± 100 M⁻¹ s⁻¹

B3: D-LDH2 (Sporolactobacillus inulinus CASD) (protein)
chain: MAFKIIAYGVEPYEEHLYSELNKYGFELTLVNDLLTADNGDLAKGHDGVLLFVNCLADRANLEKFNDYGINYVFTRTAGFNHIDLQAAADLGIKVARVPAYSPNAIAELAVYLGTSLLRHTVYTTARTSKLNFTVTETNFSHEVHKIKVGIVGTGHIGCVEAELYKGLGAKLLGYDIFQSDFAKKLVEFKELDELLAESDIVSLHLPYFPGKNENFVGEDFIGKMKDGAILINTARGELVDEAAVAKAIKSGKLEGFGADVLTDEARFFGKDFSDGTEFPDATIKELIELYPKVLITPHVAAMTDVAVSNMISTSYDNFNAAIKGESLGRAEVELPEPAKK
notes: as for B1
Km (pH 7.5, 30 °C): 1.4 ± 0.09 mM
Vmax (pH 7.5, 30 °C): 38.1 µmol/min/mg
kcat (pH 7.5, 30 °C): 44.7 ± 0.3 s⁻¹
kcat/Km (pH 7.5, 30 °C): 32000 ± 2000 M⁻¹ s⁻¹

B4: D-LDH1 (Sporolactobacillus inulinus CASD) (protein)
chain: MKLFMYGVQAHEKEIIRAWADAHAIDIETTADFLSEKTVDRAKDYDGICIQQPVPLGAAKLYATLKSYGIKQIATRTAGYDMIDLQEAEKNELIVTNVPAYSPYAVAELAVTQAMQLVRHVSQFQQRIAANDFRWDGLMSREIRSMTVGIVGTGRIGATAAQLFKGLGAKIIGFDQYPNDRLKDLIEYRSSLEDVLKEADIVSLHTPLFDSTRHMINARTLKLMKKSAYLINIARGALIDTEALIDALESGEIAGAALDTFENETVINKNLSGQSLNDPLLEKLIAMDQVLLTPHVGFFTETAIRNIVEGALNSVLEVLQTGTSKSRVKPAVTQ
notes: as for B1
Km (pH 6.0, 35 °C): 0.47 ± 0.04 mM
Vmax (pH 6.0, 35 °C): 62.7 µmol/min/mg
kcat (pH 6.0, 35 °C): 75.8 ± 0.3 s⁻¹
kcat/Km (pH 6.0, 35 °C): 161000 ± 6000 M⁻¹ s⁻¹

B5: D-LDH3 (Sporolactobacillus inulinus CASD) (protein)
chain: MKIIMFSVRDDEEAAIREWEKKTGVQVDINRLELDAETAQLTKGYDGIVIQQRSHISNPAVYETLQKNGLRQLTSRTAGYDMIDLEQASERGLVVTNVPAYSPNSVAELALTQTMRLIRNLPLFDARGAEQDFRWAGLMAREIRSLTVGIIGAGRIGGTVARLFKALGATVIANDIVERVELKDIVTYVSKEELLQAADVVTLHVPLMDSTTQLIDADALALMKNDAVLINASRGPVVDTDALIAALQNKQIAGAALDTLNGEEHFFNQDLCGKELPSEQLKVLRTLPNVLITPHIGFYTNKAVQNMVEISLNDVLAILKTGTSEHQLNKVAVEN
notes: N-terminal His-tag (pET-28a) removed by enterokinase; E. coli BL21(DE3); homodimer hypothesised from identical DLDH744
Km (pH 5.5, 30 °C): 3.1 ± 0.08 mM
Vmax (pH 5.5, 30 °C): 9.2 µmol/min/mg
kcat (pH 5.5, 30 °C): 10.7 ± 0.2 s⁻¹
kcat/Km (pH 5.5, 30 °C): 3500 ± 200 M⁻¹ s⁻¹
